As usually defined, the Kd is the concentration at which binding is half-saturated.

Results on 3 sequences are retold here after US20040191815.

The target of data set [1] is MafG homodimer (UniProt O15525). Nature of the data set: SPR. The following applies: pH 7.9; for Kd: 20 mM Hepes, 200 mM NaCl, 4 mM MgCl2, 1 mM EDTA, BSA.
The target is the same in data set [2]. Nature of the data set: EMSA. Particulars: gel mobility shift assay comparison, probe details not given. Background: Mobility shift assays separate free from complexed probe on a gel.
Setting [3] is: 5' thiol on anchor strand (immobilized).

Sequence of MafG homodimer (O15525 whole entry): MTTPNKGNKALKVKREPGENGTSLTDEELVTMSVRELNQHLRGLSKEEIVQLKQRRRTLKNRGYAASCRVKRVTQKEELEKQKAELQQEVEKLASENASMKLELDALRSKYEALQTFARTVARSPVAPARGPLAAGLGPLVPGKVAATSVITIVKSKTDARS

For “TTTTTTTTTTTTTTTCGGAATAGTTGACTCAGCATTACTC (double strand) [hNQO1m]”, the figures for the Kd in the data set with MafG homodimer [1] (setting [3]) and in the data set with MafG homodimer [2] (setting [3]) were 8.58 nM and 273 nM, respectively.

For “TTTTTTTTTTTTTTTCGGAATTGCTGACTCAGCATTACTC (double strand) [MARE 25]”, the Ka in the data set with MafG homodimer [1] (5' thiol on anchor strand (immobilized), 10 mM Hepes, 300 mM NaCl, 4 mM Mg, 1 mM EDTA, ka 2.22e5 M-1s-1, kd 8.80e-4 s-1, Example 1 sequence printed only in figure) turned out to be 2.52e+08 M⁻¹. Further, the Kd with MafG homodimer [1] (5' thiol on anchor strand (immobilized), SPR imaging) stood at 2.5 nM; with MafG homodimer [2] (setting [3]), 249 nM.

In the case of “TTTTTTTTTTTTTTTCGGAATTGCTGATTCAGCCTTACTC (double strand) [hOPSIN]”, the Kd with MafG homodimer [1] (5' thiol on anchor strand (immobilized) [variable site 22-34 (TGCTGATTCAGCC), 5' thiol linker at 1 left out], listing SEQ 7 has 14 nt, Table 2 prints 13 nt) came to 7.67 nM; in the data set with MafG homodimer [2] (5' thiol on anchor strand (immobilized) [variable site 22-34 (TGCTGATTCAGCC), 5' thiol linker at 1 left out]), 252 nM.
